This passage reports Transduction efficiencies as measured by CD3+GFP+ cells results from EP4752227A2.

The assay addresses CD3 (human) (UniProt P07766). Description: cell-based or functional assay.
UniProt P07766, sequence (P07766 23-207): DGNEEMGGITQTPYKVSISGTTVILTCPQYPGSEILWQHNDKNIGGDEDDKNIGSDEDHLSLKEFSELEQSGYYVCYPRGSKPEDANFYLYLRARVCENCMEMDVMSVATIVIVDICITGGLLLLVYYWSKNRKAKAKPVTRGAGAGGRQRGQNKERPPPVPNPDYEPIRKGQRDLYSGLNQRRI
The substance soluble anti-CD3 antibody clone HIT3A came in with a Transduction efficiencies as measured by CD3+GFP+ cells at Day 6 of 4.31%.
The figure for soluble anti-CD3 antibody clone OKT3 is 3.27%.
The figure for soluble anti-CD3 antibody clone UCHT1 is 0.52%.
